Laboratory results published in PMC10369405 (JACS Au, 2023).

Target: T1, full-length human Gasdermin D (human, UniProt P57764 1-484)
T1 construct: Gasdermin D, human, UniProt P57764, 484 residues (53 kDa); His6-SUMO tag removed with Ulp1 protease and anion exchange; also called hGSDMD; GSDMD; source: E. coli BL21 (DE3) Gold, purified (HisTrap, Ulp1 cleavage, anion exchange, Superdex 75)
T1 sequence (looked up): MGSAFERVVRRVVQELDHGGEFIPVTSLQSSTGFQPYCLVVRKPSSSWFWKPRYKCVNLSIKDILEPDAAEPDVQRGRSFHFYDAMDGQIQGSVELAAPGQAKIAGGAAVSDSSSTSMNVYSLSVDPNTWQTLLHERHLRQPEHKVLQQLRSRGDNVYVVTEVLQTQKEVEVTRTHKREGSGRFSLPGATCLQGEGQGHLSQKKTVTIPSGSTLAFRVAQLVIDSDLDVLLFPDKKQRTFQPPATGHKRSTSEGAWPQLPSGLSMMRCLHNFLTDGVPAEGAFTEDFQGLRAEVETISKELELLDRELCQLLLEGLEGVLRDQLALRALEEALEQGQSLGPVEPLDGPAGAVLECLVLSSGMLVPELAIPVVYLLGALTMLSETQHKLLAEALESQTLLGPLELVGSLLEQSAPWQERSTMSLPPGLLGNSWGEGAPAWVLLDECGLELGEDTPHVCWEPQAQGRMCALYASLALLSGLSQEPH
Assay: native gel or EMSA; native-PAGE, 12% polyacrylamide, 150 V, 25 mM Tris-HCl, 192 mM glycine, pH 8.3; Caspase-1 alone (40 uM), GSDMD alone (40 uM), GSDMD/Caspase-1 at 1:1 and 2:1 equivalents, with and without 20 mM NaTDB
Conditions: both partners purified

B1: human Caspase-1 (C285A) p20/p10 dimer (complex)
chain 1: NPAMPTSSGSEGNVKLCSLEEAQRIWKQKSAEIYPIMDKSSRTRLALIICNEEFDSIPRRTGAEVDITGMTMLLQNLGYSVDVKKNLTASDMTTELEAFAHRPEHKTSDSTFLVFMSHGIREGICGKKHSEQVPDILQLNAIFNMLNTKNCPSLKDKPKVIIIQAARGDSPGVVWFKD
chain 2: AIKKAHIEKDFIAFCSSTPDNVSWRHPTMGSVFIGRLIEHMQEYACSCDVEEIFRKVRFSFEQPDGRAQMPTTERVTLTRCFYLFPGH
notes: peptides 279-286 and 287-297 are assigned to it; Caspase-1 p10 subunit (p10 fragment), human; peptides 342-352, 375-383 and 384-391 are assigned to it; Polycistronic vector encoding an N-terminal His-tag; also called hCaspase-1 (C285A); protease C285A
B1: binds.
